According to CN114369161A (HEFEN TIANKPORT IMMUNOLOGICAL DRUG CO LTD, dated 2022):

Columns and labels:
[1] = target: T1, MICA胞外区α3结构域Fc融合蛋白(MICAα3-Fc); experiment: ELISA (legend of Fig. 2)
T1 construct: also called MICAα3-Fc融合蛋白; MICA α3结构域

MICA (CHO-K1-MICA细胞表达) = target: T2, MICA (CHO-K1-MICA细胞表达) (Homo sapiens (Human), UniProt Q29983 24-383); experiment: flow cytometry (legend of Fig. 3)
T2 construct: also called MICA蛋白
T2 sequence: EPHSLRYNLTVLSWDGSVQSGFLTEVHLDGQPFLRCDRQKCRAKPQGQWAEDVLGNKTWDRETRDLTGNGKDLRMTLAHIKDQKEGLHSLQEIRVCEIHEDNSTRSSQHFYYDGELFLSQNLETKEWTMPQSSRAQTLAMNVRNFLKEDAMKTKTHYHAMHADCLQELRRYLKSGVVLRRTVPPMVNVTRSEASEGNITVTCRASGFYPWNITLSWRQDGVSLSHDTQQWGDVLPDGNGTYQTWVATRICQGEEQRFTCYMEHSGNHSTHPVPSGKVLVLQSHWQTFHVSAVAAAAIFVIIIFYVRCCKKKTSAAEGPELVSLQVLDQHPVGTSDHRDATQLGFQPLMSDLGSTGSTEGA

MICB (CHO-K1-MICB细胞表达) = target: T3, MICB (CHO-K1-MICB细胞表达) (Homo sapiens (Human), UniProt Q29980 23-382); experiment: flow cytometry (legend of Fig. 4)
T3 chain: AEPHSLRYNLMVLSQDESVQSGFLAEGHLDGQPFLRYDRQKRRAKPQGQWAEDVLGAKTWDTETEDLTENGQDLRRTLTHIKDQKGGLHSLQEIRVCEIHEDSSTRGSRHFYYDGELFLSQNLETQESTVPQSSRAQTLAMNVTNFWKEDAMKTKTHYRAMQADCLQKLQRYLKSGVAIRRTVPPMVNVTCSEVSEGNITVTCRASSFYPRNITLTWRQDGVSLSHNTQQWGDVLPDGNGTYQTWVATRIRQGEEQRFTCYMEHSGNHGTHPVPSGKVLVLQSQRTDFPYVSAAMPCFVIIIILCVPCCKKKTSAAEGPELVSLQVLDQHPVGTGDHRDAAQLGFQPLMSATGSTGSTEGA

重组MICA胞外区Fc融合蛋白(MICA-Fc) = target: T4, 重组MICA胞外区Fc融合蛋白(MICA-Fc) (human); experiment: ELISA, MICA-Fc coated at 1 μg/mL, HRP anti-mouse secondary
T4 construct: also called MICA-Fc融合蛋白; 人MICA

Measured: binding result

T1 sequence (chain, as listed by the source limits assumed): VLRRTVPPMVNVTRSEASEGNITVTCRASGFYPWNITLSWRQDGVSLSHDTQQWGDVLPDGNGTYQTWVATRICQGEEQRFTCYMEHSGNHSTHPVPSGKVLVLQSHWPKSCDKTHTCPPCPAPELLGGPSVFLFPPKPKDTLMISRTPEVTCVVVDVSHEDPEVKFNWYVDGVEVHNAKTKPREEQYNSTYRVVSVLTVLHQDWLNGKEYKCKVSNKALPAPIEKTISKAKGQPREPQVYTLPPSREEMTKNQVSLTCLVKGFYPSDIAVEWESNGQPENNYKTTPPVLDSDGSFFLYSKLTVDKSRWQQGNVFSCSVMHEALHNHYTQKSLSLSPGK

B1: MICA抗体(编号为11G3) (antibody, V domains shown)
VH: QIQLVQSGPELKKPGESVKISCKASGYTFTDYGINWVKQAPGKGLKWVGWINTYTGEPINADDFKGRFALSLETSANTAYLQINNLKNEDMATYFCTRLSTVAVGAWFEYWGQGTLVTVSA
VL: DVLMTQTPLSLPVSLGDQASISCRSSQNIVHSNGNTYLEWYLQKPGQSPKLLIYKVSNRFSGVPDRFSGSGSGTDFTLKISRVEAEDLGVYYCFQGSHVPTFGGGTKLEIK
notes: also called 鼠单抗; 本发明的抗体
binds: all assays above
